Laboratory results as given in US5364782A, “Mutant microbial α-amylases with increased thermal, acid and/or alkaline stability” (Gist-Brocades N.V., priority 1989, dated 1994).

What was measured:
[1] = substrate: O=[N+]([O-])c1ccc(OC2O[C@H](CO)[C@@H](O[C@H]3O[C@H](CO)[C@@H](O[C@H]4O[C@H](CO)[C@@H](O[C@H]5O[C@H](CO)[C@@H](O[C@H]6O[C@H](CO)[C@@H](O)[C@H](O)[C@H]6O)[C@H](O)[C@H]5O)[C@H](O)[C@H]4O)[C@H](O)[C@H]3O)[C@H](O)[C@H]2O)cc1; experiment: Enzymatic activity with 4NP-DP5 as substrate, Michaelis-Menten kinetics (WT); format: biochemical, Bacillus licheniformis; settings: other: substrate 4NP-DP5 0-1 mM, 35° C., 50 mM MOPS, 50 mM NaCl, 2 mM CaCl2, pH 7.15, WT α-amylase
Description: (§1) The enzymatic activity of B. licheniformis α-amylase WT and mutants was measured using 4-nitrophenyl-maltopentaoside (4NP-DP5) as a substrate, 4 nitrophenol and maltopentaose are formed, this reaction can be followed by measuring the change in OD 405 The assay was performed at 35° C. in 50 mM MOPS, 50 mM NaCl, 2 mM CaCl2 (PH 7.15) and 0-1 mM 4NP-DP5.
(§2) Initial rates were measured and E-nitrophenol was taken as 10,000 l/M/cm.

[2] = substrate: O=[N+]([O-])c1ccc(OC2O[C@H](CO)[C@@H](O[C@H]3O[C@H](CO)[C@@H](O[C@H]4O[C@H](CO)[C@@H](O[C@H]5O[C@H](CO)[C@@H](O[C@H]6O[C@H](CO)[C@@H](O)[C@H](O)[C@H]6O)[C@H](O)[C@H]5O)[C@H](O)[C@H]4O)[C@H](O)[C@H]3O)[C@H](O)[C@H]2O)cc1; experiment: Enzymatic activity with 4NP-DP5 as substrate, Michaelis-Menten kinetics (mutant 2D5); format: biochemical, Bacillus licheniformis; settings: other: substrate 4NP-DP5 0-1 mM, 35° C., 50 mM MOPS, 50 mM NaCl, 2 mM CaCl2, pH 7.15, 2D5 α-amylase
Description: 2D5 contained the D7 mutation and in addition threonine 149 was replaced by isoleucine (2D5=H133Y, T149I).
as §1, §2

Protein	Km [1]	Vmax [1]	Km [2]	Vmax [2]
Bacillus licheniformis α-amylase, WT (wild type, B. licheniformis T5; SEQ ID NO: 3) (Bacillus licheniformis) (protein, made in house; host or cells: E. coli WK6) ANLNGTLMQYFEWYMPNDGQHWKRLQNDSAYLAEHGITAVWIPPAYKGTSQADVGYGAYDLYDLGEFHQKGTVRTKYGTKGELQSAIKSLHSRDINVYGDVVINHKGGADATEDVTAVEVDPADRNRVISGEHRIKAWTHFHFPGRGSTYSDFKWHWYHFDGTDWDESRKLNRIYKFQGKAWDWEVSNENGNYDYLMYADIDYDHPDVAAEIKRWGTWYANELQLDGFRLDAVKHIKFSFLRDWVNHVREKTGKEMFTVAEYWQNDLGALENYLNKTNFNHSVFDVPLHYQFHAASTQGGGYDMRKLLNSTVVSKHPLKAVTFVDNHDTQPGQSLESTVQTWFKPLAYAFILTRESGYPQVFYGDMYGTKGDSQREIPALKHKIEPILKARKQYAYGAQHDYFDHHDIVGWTREGDSSVANSGLAALITDGPGGAKRMYVGRQNAGETWHDITGNRSEPVVINSEGWGEFHVNGGSVSIYVQR	112 µM	66.7 ± 0.9 µmol/min/mg	–	–
Bacillus licheniformis α-amylase mutant 2D5 (H133Y, T149I) (Bacillus licheniformis; H162Y/T178I) (protein, made in house; host or cells: E. coli WK6) ANLNGTLMQYFEWYMPNDGQHWKRLQNDSAYLAEHGITAVWIPPAYKGTSQADVGYGAYDLYDLGEFHQKGTVRTKYGTKGELQSAIKSLHSRDINVYGDVVINHKGGADATEDVTAVEVDPADRNRVISGEYRIKAWTHFHFPGRGSIYSDFKWHWYHFDGTDWDESRKLNRIYKFQGKAWDWEVSNENGNYDYLMYADIDYDHPDVAAEIKRWGTWYANELQLDGFRLDAVKHIKFSFLRDWVNHVREKTGKEMFTVAEYWQNDLGALENYLNKTNFNHSVFDVPLHYQFHAASTQGGGYDMRKLLNSTVVSKHPLKAVTFVDNHDTQPGQSLESTVQTWFKPLAYAFILTRESGYPQVFYGDMYGTKGDSQREIPALKHKIEPILKARKQYAYGAQHDYFDHHDIVGWTREGDSSVANSGLAALITDGPGGAKRMYVGRQNAGETWHDITGNRSEPVVINSEGWGEFHVNGGSVSIYVQR	–	–	119 µM	66.3 ± 0.7 µmol/min/mg
